Measured values: patent US20210132065A1, “MAMMALIAN MHC PEPTIDE DISPLAY AS AN EPITOPE SELECTION TOOL FOR VACCINE DESIGN” (ETH Zürich, priority 2018, published 2021)
“Also recorded” adds a separate entry of the source. Where two headings read alike, the source gives them in different places. Where no end group is shown, it is not given here.

Columns and labels:
[1] = molecular target: HLA-DRB1_15 (Homo sapiens, UniProt P01903+P01911); type: cell-based; conditions: for MCR surface expression: peptide covalently linked to beta chain, anti-HLA-DR APC antibody, FACS
[2] = molecular target: HLA-DRB5_1 (Homo sapiens, UniProt P01903+Q30154); type: cell-based; conditions: for MCR surface expression: peptide covalently linked to beta chain, anti-HLA-DR APC antibody, FACS
[3] = FIG. 6, anti-CD3e or anti-HLA-DR PE antibodies, peptides containing the core epitope with different flanking regions

Chain of HLA-DRB5_1 (Q30154 30-227 limits assumed): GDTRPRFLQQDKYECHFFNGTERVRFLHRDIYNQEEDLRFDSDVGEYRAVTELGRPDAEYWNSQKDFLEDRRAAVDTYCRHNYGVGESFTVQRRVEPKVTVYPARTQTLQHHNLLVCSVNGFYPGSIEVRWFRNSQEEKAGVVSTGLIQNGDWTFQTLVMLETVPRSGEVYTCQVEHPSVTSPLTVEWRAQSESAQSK
Chain of HLA-DRB5_1 (P01903 26-216 limits assumed): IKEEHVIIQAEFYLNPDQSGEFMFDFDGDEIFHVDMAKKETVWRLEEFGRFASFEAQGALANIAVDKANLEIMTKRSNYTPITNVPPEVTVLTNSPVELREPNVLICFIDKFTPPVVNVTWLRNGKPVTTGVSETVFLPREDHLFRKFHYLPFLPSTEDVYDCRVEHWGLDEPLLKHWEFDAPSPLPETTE
Chain of HLA-DRB1_15 (P01911 30-227 limits assumed): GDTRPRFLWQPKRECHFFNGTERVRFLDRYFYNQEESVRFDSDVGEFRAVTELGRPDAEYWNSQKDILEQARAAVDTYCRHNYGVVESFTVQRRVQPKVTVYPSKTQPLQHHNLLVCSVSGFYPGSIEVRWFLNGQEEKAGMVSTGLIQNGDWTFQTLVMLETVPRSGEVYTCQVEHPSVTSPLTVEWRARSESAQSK
Chain of HLA-DRB1_15 (P01903 26-216 limits assumed): as the sequence (P01903 26-216 limits assumed) above

Row | Substance | MCR surface expression [1] | MCR surface expression [2] | presentation (MCR surface expression) [1, 3] | presentation (MCR surface expression) [2, 3] | MCR surface expression ([1]; listed as MP1103-121) | MCR surface expression ([2]; listed as MP1103-121)
1 | MP162-72: influenza Matrix Protein 1-derived peptide comprising amino acids 62-72, covalently linked to the HLA beta chain of the MCR (FVFTLTVPSER; also: covalently linked to HLA beta chain of the MCR; UniProt P03485 62-72, looked up, fragment) | not the other HLAs tested | efficient expression | – | – | – | –
2 | MP1107-117: core epitope of influenza Matrix Protein 1, amino acids 107-117, tested within peptides with different flanking regions (ITFHGAKEISL; UniProt P03485 107-117, looked up, fragment) | – | – | not by HLA-DRB1_15 | nor HLA-DRB5_1 | – | –
3 | MP1103-120: influenza Matrix Protein 1 peptide, amino acids 103-120, covalently linked to the HLA beta chain of the MCR (LKREITFHGAKEISLSYS; also: covalently linked to HLA beta chain of the MCR; UniProt P03485 103-120, looked up, fragment) | detectable at very low levels; also recorded: very low MCR expression | barely detected; also recorded: not expressed at all | – | – | low surface expression | not to bind at all
